Substitutions are numbered along the chain they refer to. Names and notes keep the numbering of the source. Blank lines part the entries; values can stand above or below the binder they belong to.
Tests used:
[1] = target: the molecule itself; assay: SEC; 16/60 Sephacryl S-300 in 25 mM Tris-HCl pH 8.0, 100 mM NaCl, 10% glycerol, 1 mM TCEP; no exogenous ligand; tetramer and monomer peaks
[2] = target: T1, His-TEV-PPARγ (234-505) (human, UniProt P37231 234-505); assay: SEC; analytical, 10/300 Superdex 200; equivalent molar volumes loaded; heterodimer formed by mixing the two proteins at a 1:1 molar ratio; no ligand; details: both partners purified
T1 construct: The methods name no species for the bacterial construct; No tag cleavage is described for this preparation; also called PPARg; source: E. coli, purified (Ni-NTA, size exclusion chromatography)
T1 sequence (looked up): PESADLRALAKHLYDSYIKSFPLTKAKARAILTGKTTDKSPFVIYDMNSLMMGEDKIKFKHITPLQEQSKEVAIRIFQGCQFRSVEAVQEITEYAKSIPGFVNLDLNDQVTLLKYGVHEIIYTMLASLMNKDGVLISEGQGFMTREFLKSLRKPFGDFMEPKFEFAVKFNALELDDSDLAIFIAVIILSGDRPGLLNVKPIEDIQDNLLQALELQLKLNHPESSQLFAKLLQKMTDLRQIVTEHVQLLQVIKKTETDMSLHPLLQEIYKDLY

[3] = target: T2, His-TEV-RXRα-S427F (223-462) (Homo sapiens (Human), UniProt P19793); assay: SPR (also analytical size exclusion chromatography); S427F mutant of RXRα; binding seen without added ligand
T2 chain: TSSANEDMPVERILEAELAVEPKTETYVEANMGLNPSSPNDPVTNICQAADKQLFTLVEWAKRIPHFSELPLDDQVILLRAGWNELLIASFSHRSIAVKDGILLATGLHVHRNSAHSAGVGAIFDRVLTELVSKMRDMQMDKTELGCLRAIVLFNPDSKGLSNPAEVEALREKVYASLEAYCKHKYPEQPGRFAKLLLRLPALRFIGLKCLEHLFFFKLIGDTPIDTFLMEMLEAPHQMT

[4] = target: T3, His-TEV-RXRα-WT (223-462) (Homo sapiens (Human), UniProt P19793); assay: SPR; monomer fraction of RXRα WT used (apo tetramer is inactive)
T3 chain: T2 chain with F205S

B1: His-TEV-RXRα-WT (223-462) (domain or fragment, human, UniProt P19793 223-462, looked up)
chain: T2 chain with F205S
stoichiometry N [1]: 4

binding result [2]: binds
B2: His-TEV-RXRα-S427F (223-462) (domain or fragment, human, UniProt P19793 223-462, looked up)
chain: T2 chain
notes: S427F is a recurrent mutation found in patients' tumours; No tag cleavage is described for this preparation; also called the mutant; source: E. coli, purified (Ni-NTA, size exclusion chromatography)

binding result [3]: binds
binding result [4]: binds
B3: His-TEV-PPARγ (234-505) (protein)
chain: T1 sequence (looked up)
